Source: patent US6528295

Target: Protein Phosphatase Methylesterase-1 (PME-1), endogenous protein of NIH3T3 cells (mouse) (UniProt Q8BVQ5)
Experiment: anti-HA co-immunoprecipitation, silver-stained 2D gel

Protein Phosphatase Methylesterase-1 (PME-1), endogenous protein of NIH3T3 cells (mouse), sequence (Q8BVQ5 whole entry): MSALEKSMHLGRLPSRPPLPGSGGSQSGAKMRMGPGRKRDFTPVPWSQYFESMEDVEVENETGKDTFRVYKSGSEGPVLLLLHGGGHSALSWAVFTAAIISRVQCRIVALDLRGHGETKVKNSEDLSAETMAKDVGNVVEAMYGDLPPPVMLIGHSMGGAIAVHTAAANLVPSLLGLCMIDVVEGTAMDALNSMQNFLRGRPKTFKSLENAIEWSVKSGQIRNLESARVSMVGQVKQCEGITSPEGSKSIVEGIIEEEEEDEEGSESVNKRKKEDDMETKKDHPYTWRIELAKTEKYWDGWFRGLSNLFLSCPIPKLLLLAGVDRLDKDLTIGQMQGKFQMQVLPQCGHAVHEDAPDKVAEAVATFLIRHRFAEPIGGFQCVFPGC

stoichiometry of PME-1 to the A and C subunits in the immunoprecipitate: 1
Substance: HA-tagged PP2A C subunit mutant H118Q (from UniProt P67775 1-309) (enzyme)
